In series [1] the target is T1, EBOV sGP (Zaire ebolavirus (EBOV), UniProt P60170). The series can be described thus: filter binding. The settings on record: protein: recombinant; tags: C-terminal thrombin site + 6xHis; chain copies: 2; label: 5' 32P.
Series [2] deals with T2, SUDV sGP (Sudan virus (SUDV), UniProt Q7T9E0 33-324).
T2 sequence: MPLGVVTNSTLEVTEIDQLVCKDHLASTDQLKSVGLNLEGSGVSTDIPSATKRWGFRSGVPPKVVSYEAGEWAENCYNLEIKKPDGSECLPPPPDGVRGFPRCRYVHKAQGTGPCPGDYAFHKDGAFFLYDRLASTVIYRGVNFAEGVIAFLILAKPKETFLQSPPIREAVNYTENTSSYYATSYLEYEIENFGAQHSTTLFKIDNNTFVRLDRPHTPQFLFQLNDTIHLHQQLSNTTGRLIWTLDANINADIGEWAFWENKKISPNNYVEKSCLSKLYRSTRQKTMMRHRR
The series is described as follows: filter binding. The settings on record: protein: commercial; chain copies: 2; label: 5' 32P.

A further series addresses T3, His-Lcn2 (mouse, UniProt P11672 21-200).
T3 sequence: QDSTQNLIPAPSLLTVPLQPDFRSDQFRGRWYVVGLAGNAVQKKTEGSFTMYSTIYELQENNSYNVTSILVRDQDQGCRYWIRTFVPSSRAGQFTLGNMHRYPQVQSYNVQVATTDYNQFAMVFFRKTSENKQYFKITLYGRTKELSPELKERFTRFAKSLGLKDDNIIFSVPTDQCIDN
The series is described as follows: filter binding; Nitrocellulose filter capture in PBS at 23-24 C (NA53 in NBB); EIS sensor in PBS with or without 10% serum. The settings on record: protein: recombinant; tags: His; label: 5' 32P.

Series [3] addresses T2, SUDV sGP. The series can be described thus: electrochemical impedance (NAAO sensor); PBS; same affinity as EBOV sGP. The settings on record: protein: commercial; chain copies: 2.
For series [4], the target named is T1, EBOV sGP. The series can be described thus: electrochemical impedance (NAAO sensor); 10% human serum. To be noted: protein: recombinant; tags: C-terminal thrombin site + 6xHis; chain copies: 2.
The target of the next series is NGAL (human, UniProt P80188 21-198). The series is described as follows: filter binding; with or without 10 mM DTT, no effect; NBB buffer. The settings on record: protein: recombinant; label: 32P.

B1: 6020 (ssDNA)
DNA: GCCTGTTGTGAGCCTCCTGTCGAACATACCGTTCCACCCACATTTCAACCTTCATCCATCCTATTATTAGCCCACTCTTGAGCGTTTATTCTTGTCTCCC
Take B1: the binding result with EBOV sGP [1] is reported as “no binding”.

B2: 70SGP2A (ssDNA)
DNA: GCCTGTTGTGAGCCTCCTGTCGAACAACCACTCATATCTACTACATGACTTGCTCCATTCTGTTCTTTCT
B2: the dissociation constant Kd (commonly the free concentration of one partner at which half of the binding sites on the other are occupied at equilibrium, for simple one-to-one binding) with EBOV sGP [1] was 27 ± 15 nM.

B3: 6011 (ssDNA)
DNA: GCCTGTTGTGAGCCTCCTGTCGAACAACCACTCATATCTACTACATGACTTGCTCCATTCTGTTCTTTCTCTACGCATTGAGCGTTTATTCTTGTCTCCC
On to B3, for which the equilibrium dissociation constant (Kd) came to 165 ± 44 nM in the series with SUDV sGP [2] and 8.5 ± 3.2 nM with EBOV sGP [1]. Further, the binding result with His-Lcn2 is reported as “no binding”.

B4: 5'thio-6011 (ssDNA)
DNA: B3 DNA
modifications: 5' thiol
With B4, the binding result with SUDV sGP [3] is reported as “binds”. Further, the equilibrium dissociation constant (Kd) with EBOV sGP [4] turned out to be 2.2 ± 0.75 nM.

B5: 6012 (ssDNA)
DNA: GCCTGTTGTGAGCCTCCTGTCGAACGTATTTCTTGCTTCCTTCCTTGCCGCGCACATTGCAGTATAAGTACCTGTCGTTGAGCGTTTATTCTTGTCTCCC
Turning to B5, the figures for the Kd with SUDV sGP [2] and with EBOV sGP [1] were 151 ± 44 nM and 27 ± 12 nM, respectively.

B6: NA53 (ssDNA)
DNA: AGCAGCACAGAGGTCAGATGCCGTGCGGATGTACAGGGACTTGGATAGTTTCTGACCTATGCGTGCTACCGTGAA
Consider B6, for which the binding result with NGAL is reported as “binds”.

B7: 6022 (ssDNA)
DNA: GCCTGTTGTGAGCCTCCTGTCGAACCCTATCTTGTTCATGCTATTCTCAATATTTTCGGTTCACTTACCGTCTGCCTTTGAGCGTTTATTCTTGTCTCCC
Take B7: the Kd with EBOV sGP [1] was about 23 nM.
